Molecular target: PCSK9 S123R (human) (UniProt Q8NBP7)
Assay: Luminex bead assay

B1: 21B12 (isotype as tested not stated) (antibody, V domains shown)
VH: QVQLVQSGAEVKKPGASVKVSCKASGYTLTSYGISWVRQAPGQGLEWMGWVSFYNGNTNYAQKLQGRGTMTTDPSTSTAYMELRSLRSDDTAVYYCARGYGMDVWGQGTTVTVSS
VL: QSALTQPASVSGSPGQSITISCTGTSSDVGGYNSVSWYQQHPGKAPKLMIYEVSNRPSGVSNRFSGSKSGNTASLTISGLQAEDEADYYCNSYTSTSMVFGGGTKLTVL
- BmaxPerWT (% of wild type): 87.6
- RawMaxPerWT (% of wild type): 88.1

Source: patent publication US20140357851A1
